Data reported in IntAct's records for PubMed 31025394.

B1: Myosin-binding protein C, slow-type (Homo sapiens), Q00872-4 (parent)
chain: MPEPTKKEENEVPAPAPPPEEPSKEKEAGTTPAKDEEEVSPPSALPPGLGSRALERKDSDWTLVETPPGEEQAKQNANSQLSILFIEKPQGGTVKVGEDITFIAKVKAEDLLRKPTIKWFKGKWMDLASKAGKHLQLKETFERHSRVYTFEMQIIKAKDNFAGNYRCEVTYKDKFDSCSFDLEVHESTGTTPNIDIRSAFKRSGEGQEDAGELDFSGLLKRREVKQQEEEPQVDVWELLKNAKPSEYEKIAFQYGITDLRGMLKRLKRMRREEKKSAAFAKILDPAYQVDKGGRVRFVVELADPKLEVKWYKNGQEIRPSTKYIFEHKGCQRILFINNCQMTDDSEYYVTAGDEKCSTELFVREPPIMVTKQLEDTTAYCGERVELECEVSEDDANVKWFKNGEEIIPGPKSRYRIRVEGKKHILIIEGATKADAAEYSVMTTGGQSSAKLSVDLKPLKILTPLTDQTVNLGKEICLKCEISENIPGKWTKNGLPVQESDRLKVVHKGRIHKLVIANALTEDEGDYVFAPDAYNVTLPAKVHVIDPPKIILDGLDADNTVTVIAGNKLRLEIPISGEPPPKAMWSRGDKAIMEGSGRIRTESYPDSSTLVIDIAERDDSGVYHINLKNEAGEAHASIKVKVVDFPDPPVAPTVTEVGDDWCIMNWEPPAYDGGSPILGYFIERKKKQSSRWMRLNFDLCKETTFEPKKMIEGVAYEVRIFAVNAIGISKPSMPSRPFVPLAVTSPPTLLTVDSVTDTTVTMRWRPPDHIGAAGLDGYVLEYCFEGTEDWIVANKDLIDKTKFTITGLPTDAKIFVRVKAVNAAGASEPKYYSQPILVKEIIEPPKIRIPRHLKQTYIRRVGEAVNLVIPFQGKPRPELTWKKDGAEIDKNQINIRNSETDTIIFIRKAERSHSGKYDLQVKVDKFVETASIDIQIIDRPGPPQIVKIEDVWGENVALTWTPPKDDGNAAITGYTIQKADKKSMEWFTVIEHYHRTSATITELVIGNEYYFRVFSENMCGLSEDATMTKESAVIARDGKIYKNPVYEDFDFSEAPMFTQPLVNTYAIAGYNATLNCSVRGNPKPKITWMKNKVAIVDDPRYRMFSNQGVCTLEIRKPSPYDGGTYCCKAVNDLGTVEIECKLEVKVIYQGVNTPGQPVFLEGQQQSLHNKDF

Legend:
acts_rabit ACTA1, P68135 = variants of: B1; details: with acts_rabit ACTA1, P68135
[1] = variants of: B1; details: with myh11_rabit MYH11, P35748
Sequence of myh11_rabit MYH11, P35748 (P35748 whole entry): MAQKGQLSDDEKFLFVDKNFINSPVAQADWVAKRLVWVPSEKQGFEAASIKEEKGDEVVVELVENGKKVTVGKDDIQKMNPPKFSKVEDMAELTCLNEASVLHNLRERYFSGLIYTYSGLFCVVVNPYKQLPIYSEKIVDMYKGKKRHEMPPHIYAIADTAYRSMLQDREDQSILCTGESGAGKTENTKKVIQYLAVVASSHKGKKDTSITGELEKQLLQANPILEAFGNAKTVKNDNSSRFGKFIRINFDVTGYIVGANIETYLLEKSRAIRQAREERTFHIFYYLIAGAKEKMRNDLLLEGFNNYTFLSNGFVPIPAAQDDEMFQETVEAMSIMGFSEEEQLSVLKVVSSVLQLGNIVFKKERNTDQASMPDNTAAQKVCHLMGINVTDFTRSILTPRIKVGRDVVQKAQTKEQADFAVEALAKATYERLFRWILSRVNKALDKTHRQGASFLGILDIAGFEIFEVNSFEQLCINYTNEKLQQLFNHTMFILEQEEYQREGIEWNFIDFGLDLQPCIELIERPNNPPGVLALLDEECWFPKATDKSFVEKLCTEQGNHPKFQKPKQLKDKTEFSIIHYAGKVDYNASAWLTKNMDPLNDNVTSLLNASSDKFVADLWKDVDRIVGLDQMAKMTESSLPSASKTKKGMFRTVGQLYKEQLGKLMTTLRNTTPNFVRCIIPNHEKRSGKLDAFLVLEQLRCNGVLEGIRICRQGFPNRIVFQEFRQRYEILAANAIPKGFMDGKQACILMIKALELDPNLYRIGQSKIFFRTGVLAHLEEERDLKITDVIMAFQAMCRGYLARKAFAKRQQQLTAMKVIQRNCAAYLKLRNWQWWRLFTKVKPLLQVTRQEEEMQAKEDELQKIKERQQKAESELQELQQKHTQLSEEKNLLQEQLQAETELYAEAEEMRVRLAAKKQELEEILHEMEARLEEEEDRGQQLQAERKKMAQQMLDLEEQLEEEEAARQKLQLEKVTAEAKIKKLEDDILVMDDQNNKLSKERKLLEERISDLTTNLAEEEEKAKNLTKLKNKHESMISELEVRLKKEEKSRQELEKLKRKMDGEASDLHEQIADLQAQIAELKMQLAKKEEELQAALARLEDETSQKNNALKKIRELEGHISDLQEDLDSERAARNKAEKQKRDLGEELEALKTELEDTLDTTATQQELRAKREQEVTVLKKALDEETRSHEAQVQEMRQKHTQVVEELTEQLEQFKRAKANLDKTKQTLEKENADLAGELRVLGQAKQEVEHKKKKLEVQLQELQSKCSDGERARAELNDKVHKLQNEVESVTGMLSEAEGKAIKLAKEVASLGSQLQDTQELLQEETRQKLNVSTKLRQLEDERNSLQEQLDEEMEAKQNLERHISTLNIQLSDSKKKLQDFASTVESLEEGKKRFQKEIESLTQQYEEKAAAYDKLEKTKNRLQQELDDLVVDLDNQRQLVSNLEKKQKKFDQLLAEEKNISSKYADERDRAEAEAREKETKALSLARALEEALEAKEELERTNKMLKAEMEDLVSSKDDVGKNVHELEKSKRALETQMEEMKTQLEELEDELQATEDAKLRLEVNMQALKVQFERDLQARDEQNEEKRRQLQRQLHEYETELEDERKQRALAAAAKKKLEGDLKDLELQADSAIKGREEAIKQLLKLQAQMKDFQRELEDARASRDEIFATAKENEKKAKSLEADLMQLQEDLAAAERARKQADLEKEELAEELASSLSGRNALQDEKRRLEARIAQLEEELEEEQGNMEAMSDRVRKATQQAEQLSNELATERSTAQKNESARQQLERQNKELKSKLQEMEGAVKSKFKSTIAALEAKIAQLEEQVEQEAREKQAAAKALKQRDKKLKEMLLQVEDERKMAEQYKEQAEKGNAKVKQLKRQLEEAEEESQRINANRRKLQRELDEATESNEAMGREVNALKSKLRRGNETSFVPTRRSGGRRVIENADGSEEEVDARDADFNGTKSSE

Row | effect of a mutation on the interaction (acts_rabit ACTA1, P68135) | effect of a mutation on the interaction [1] | Variant
1 | increasing interaction strength | increasing interaction strength | E248K
2 | increasing interaction strength | increasing interaction strength | Y247H
